Experimental findings from article PMC7375812, “Molecular determinants of large cargo transport into the nucleus” (eLife, 2020) are described below.

The series deals with the molecule itself. Nature of the series: negative-stain electron microscopy; purified (and labelled) capsids adsorbed on glow-discharged carbon-coated grids, 2% uranyl acetate.

B1: MS2^S37P capsid (bacteriophage MS2 coat protein with S37P and T15C) (natural protein)
chain: MASNFTQFVLVDNGGCGDVTVAPSNFANGVAEWISSNPRSQAYKVTCSVRQSSAQNRKYTIKVEVPKVATQTVGGVELPVAAWRSYLNMELTIPIFATNSDCELIVKAMQGLLKDGNPIPSAIAANSGIY
modifications: the introduced cysteine (T15C) coupled by maleimide to Alexa Fluor 647 or to the NLS peptide Mal-…, in a share of the copies each
notes: coat protein of bacteriophage MS2; The NLS peptide is a branch on the cysteine, not part of the chain; source: E. coli BL21 AI, purified (PEI, ammonium sulphate, tangential flow, size exclusion after labelling); copies: 60
With B1, the binding result was “binds”.

B2: MS2 capsid (wild-type bacteriophage MS2 coat protein with T15C) (natural protein)
chain: MASNFTQFVLVDNGGCGDVTVAPSNFANGVAEWISSNSRSQAYKVTCSVRQSSAQNRKYTIKVEVPKVATQTVGGVELPVAAWRSYLNMELTIPIFATNSDCELIVKAMQGLLKDGNPIPSAIAANSGIY
modifications: the introduced cysteine (T15C) coupled by maleimide to Alexa Fluor 647 or to the NLS peptide Mal-…, in a share of the copies each
notes: coat protein of bacteriophage MS2; The NLS peptide is a branch on the cysteine, not part of the chain; source: E. coli BL21 AI, purified (PEI, ammonium sulphate, tangential flow, size exclusion after labelling); copies: 180
Turning to B2, the binding result was “binds”.
